{
  "source": "patent US8956838B2",
  "about": "“Carboxyl esterase polypeptides” (B.R.A.I.N., priority 2006, dated 2015)",
  "type_in_all_cases": "biochemical",
  "key": {"[1]": {"experiment": "Enzyme activity with pNP-acylesters of different chain length", "conditions": "4 mM, 45° C., pH 7.2", "description": "Enzyme activity tests were performed by incubating the enzyme with 4 mM substrate at 45° C. in 100 mM Tris-HCl buffer at pH 7.2, unless otherwise indicated. The reaction was measured at 410 nm. One unit is defined as the amount of enzyme catalyzing the appearance of 1 μmol of free p-nitrophenol/min. Enzyme activity against pNP-acylesters (butyrate, valerate, caproate, octanoate, decanoate and palmitate) was tested under the above conditions. […] The enzyme according to SEQ ID NO: 6 converted pNP-caproate with a specific activity of 80.0 U/mg."}, "[2]": {"experiment": "Determination of pH optimum by titration", "conditions": "incubation for up to 48 hours, up to pH 12 (data not shown)", "description": "The pH optimum for the enzymes was determined using tributyrin as substrate. The incubation conditions were 20 ml buffer (2.5 mM phosphate buffer [pH 4-7], 2.5 mM Tris/HCl buffer [pH 7-11] or 2.5 mM glycine buffer [pH 9-11], supplemented with 100 mM NaCl) stirred at a constant temperature of 37° C. The esterase substrate tributyrin (final concentration of 2 mM) was added to 5 ml of the corresponding buffer at 37° C., emulsified and added to the whole preparation. This substrate emulsion was held constant at the correct pH automatically by the titrator (718 STAT Titrino; Metrohm, Herisau, Switzerland) for 2 min and this served as the control. […]"}, "[3]": {"experiment": "Titration assay with vinyl acid esters", "conditions": "10 mM, 37° C., pH 7.0", "description": "(§1) Enzyme activities on the substrates triacetin, tripropionin, tributyrin, tricaprylene, trilaurin and vinyl-substrates (vinyl-acetate, ˜propionate, ˜butyrate, ˜caproate, ˜caprylate and ˜laurate) were determined using a standard titration assay with minor modifications. Tests were performed with a Methrom 718 STAT potentiometric titrator (Herisau, Switzerland) and by using 10 mM NaOH for titration. The substrates at 10 mM concentration were emulsified in 20 ml reaction buffer containing 2 mM Tris/HCl pH 7.0. After addition of 7.5 μg of the purified enzyme the NaOH consumption was recorded at a reaction temperature of 37° C. One unit was defined as the amount of enzyme that released […] of fatty acid per min."}, "[4]": {"experiment": "Solvent stability, residual activity", "conditions": "1 h at 30° C., measured at 45° C.", "description": "The stability of the enzymes was determined in the presence of the following solvents: DMSO, isopropanol, methanol, dimethylformamide, acetone and acetonitrile. The enzymes were incubated for 1 hour at 30° C. in the presence of either 15% (v/v) or 30% (v/v) of the solvents and the residual activity was measured at 45° C. The substrate used was pNP-butyrate."}, "[5]": {"experiment": "Titration assay with triglycerides", "conditions": "10 mM, 37° C., pH 7.0", "description": "as §1"}, "[6]": {"experiment": "Determination of thermal stability", "description": "To assay the thermostability of the enzymes they were incubated at different temperatures for one hour and the residual activity assayed at 10 minute intervals. Residual activity was measured using pNP-caproate as substrate as described above."}, "[7]": {"experiment": "Effect of bivalent cations and EDTA on catalytic activity"}, "[8]": {"experiment": "Substrate specificity on pNP-substrates with importance for pharmaceutical products", "conditions": "30 minute, 40° C., pH 7.5", "description": "The substrate range of the two enzymes was determined using pNP esters of the following: benzoate, 2-(4-isobutylphenyl)propanoate (Ibuprofen), 2-phenylpropanoate, 3-phenylbutanoate, cyclohexanoate, 2-(3-benzoylphenyl)propanoate, 2-naphthoate, 1-naphthoate, adamantanoate and 2-(6-methoxynaphthalene-2-yl)propanoate (Naproxen). Activity was determined at 410 nm after 30 minute incubation at 40° C. The reaction mixture was 950 μl buffer (100 mM Tris, pH 7.5), 50 μl substrate (5 mg/ml in DMSO) and 1 μg enzyme."}},
  "data": [
    {"molecule": "EstCE1: recombinant enzyme having carboxyl esterase activity, amino acid sequence SEQ ID NO: 4, family VIII of bacterial lipolytic enzymes (protein, metagenomic sequence) MSIADQSLAKRVQGVSQQAIDEGRIVGSVVLIARHGRVIYANASGYADREQKKPMVRETQFRLSSVSKPYITLAAMRMIEQQKLGLDDTVSRWLPWFTPALADGVRPPIKIRHLLSHTAGLDYRLSQPAEGPYHRLGIKDGMELSSLTLEQNLRLLAQADLLAEPGSEFRYSLAIDVLGAVLEQVAGEPLPQVFNHWVAQPLGLRNTGFYTTDVDNLATAYHDTAAEPEPIRDGMLLTLPEGFGFEIELAPSRALDAQAYPSGGAGMVGDADDVLQLVETLRTGKEGILQPATAALMRQAHVGSHAETQGPGWGFGFGGAVLEDAQLAATPQHNGTLQWGGVYGHSWFYDPQAAISVVALTNTAFEGMSGRYPLQIRDAVYGTNEPTR", "values": [
      {"measurement": "specific activity", "setting": "[1]; substrate pNP-butyrate (C4)", "value": 31.1, "unit": "U/mg"},
      {"measurement": "specific activity", "setting": "[1]; substrate pNP-caproate (C6)", "value": 7.4, "unit": "U/mg"},
      {"measurement": "specific activity", "setting": "[1]; substrate pNP-decanoate (C10)", "value": 0.9, "unit": "U/mg"},
      {"measurement": "specific activity", "setting": "[1]; substrate pNP-octanoate (C8)", "value": 1.0, "unit": "U/mg"},
      {"measurement": "specific activity", "setting": "[1]; substrate pNP-palmitate (C16)", "value": 0.0, "unit": "U/mg"},
      {"measurement": "specific activity", "setting": "[1]; substrate pNP-valerate (C5)", "value": 22.9, "unit": "U/mg"},
      {"measurement": "stability under alkaline conditions, in words", "setting": "[2]", "value": "extremely stable with little loss of activity"},
      {"measurement": "specific activity", "setting": "[3]; substrate vinyl acetate (C2)", "value": 13.3, "unit": "U/mg"},
      {"measurement": "specific activity", "setting": "[3]; substrate vinyl butyrate (C4)", "value": 16.0, "unit": "U/mg"},
      {"measurement": "specific activity", "setting": "[3]; substrate vinyl caproate (C6)", "value": 0, "unit": "U/mg"},
      {"measurement": "specific activity", "setting": "[3]; substrate vinyl caprylate (C8)", "value": 0, "unit": "U/mg"},
      {"measurement": "specific activity", "setting": "[3]; substrate vinyl laurinate (C12)", "value": 0, "unit": "U/mg"},
      {"measurement": "specific activity", "setting": "[3]; substrate vinyl propionate (C3)", "value": 13.3, "unit": "U/mg"},
      {"measurement": "Residual activity after 1 h incubation in the presence of solvent", "setting": "[4]; 15% (v/v) Acetone", "value": 14, "unit": "%"},
      {"measurement": "Residual activity after 1 h incubation in the presence of solvent", "setting": "[4]; 15% (v/v) Acetonitrile", "value": 0, "unit": "%"},
      {"measurement": "Residual activity after 1 h incubation in the presence of solvent", "setting": "[4]; 15% (v/v) DMSO", "value": 103, "unit": "%"},
      {"measurement": "Residual activity after 1 h incubation in the presence of solvent", "setting": "[4]; 15% (v/v) Dimethylformamid", "value": 34, "unit": "%"},
      {"measurement": "Residual activity after 1 h incubation in the presence of solvent", "setting": "[4]; 15% (v/v) Isopropanol", "value": 75, "unit": "%"},
      {"measurement": "Residual activity after 1 h incubation in the presence of solvent", "setting": "[4]; 15% (v/v) Methanol", "value": 90, "unit": "%"},
      {"measurement": "Residual activity after 1 h incubation in the presence of solvent", "setting": "[4]; 30% (v/v) Acetone", "value": 0, "unit": "%"},
      {"measurement": "Residual activity after 1 h incubation in the presence of solvent", "setting": "[4]; 30% (v/v) Acetonitrile", "value": 0, "unit": "%"},
      {"measurement": "Residual activity after 1 h incubation in the presence of solvent", "setting": "[4]; 30% (v/v) DMSO", "value": 17, "unit": "%"},
      {"measurement": "Residual activity after 1 h incubation in the presence of solvent", "setting": "[4]; 30% (v/v) Dimethylformamid", "value": 0, "unit": "%"},
      {"measurement": "Residual activity after 1 h incubation in the presence of solvent", "setting": "[4]; 30% (v/v) Isopropanol", "value": 23, "unit": "%"},
      {"measurement": "Residual activity after 1 h incubation in the presence of solvent", "setting": "[4]; 30% (v/v) Methanol", "value": 0, "unit": "%"},
      {"measurement": "specific activity", "setting": "[5]; substrate triacetin (C2)", "value": 26.7, "unit": "U/mg"},
      {"measurement": "specific activity", "setting": "[5]; substrate tributyrin (C4)", "value": 54.7, "unit": "U/mg"},
      {"measurement": "specific activity", "setting": "[5]; substrate tricaprylin (C8)", "value": 0, "unit": "U/mg"},
      {"measurement": "specific activity", "setting": "[5]; substrate trilaurin (C12)", "value": 0, "unit": "U/mg"},
      {"measurement": "specific activity", "setting": "[5]; substrate tripropionin (C3)", "value": 33.3, "unit": "U/mg"},
      {"measurement": "thermal stability, in words", "setting": "[6]; incubated for at least 60 minutes at 40° C.", "value": "without a major loss of activity"},
      {"measurement": "thermal stability, in words", "setting": "[6]; incubation at temperatures above 45° C. for more than 60 minutes (data not shown)", "value": "rapid inactivation"},
      {"measurement": "stimulatory effect on catalytic activity", "setting": "[7]; in the presence of Ca^2+", "value": 118, "unit": "%"},
      {"measurement": "stimulatory effect on catalytic activity", "setting": "[7]; in the presence of Mg^2+", "value": 108, "unit": "%"},
      {"measurement": "specific activity", "setting": "[8]; pNP-ester of 1-naphthoate", "value": 0, "unit": "U/mg"},
      {"measurement": "specific activity", "setting": "[8]; pNP-ester of 2-(3-benzoylphenyl) propanoate", "value": 0.8, "unit": "U/mg"},
      {"measurement": "specific activity", "setting": "[8]; pNP-ester of 2-(4-isobutylphenyl) propanoate (Ibuprofen)", "value": 0, "unit": "U/mg"},
      {"measurement": "specific activity", "setting": "[8]; pNP-ester of 2-(6-methoxy-naphthalen-2-yl) propanoate (Naproxen)", "value": 0, "unit": "U/mg"},
      {"measurement": "specific activity", "setting": "[8]; pNP-ester of 2-naphthoate", "value": 0, "unit": "U/mg"},
      {"measurement": "specific activity", "setting": "[8]; pNP-ester of 2-phenylpropanoate", "value": 0, "unit": "U/mg"},
      {"measurement": "specific activity", "setting": "[8]; pNP-ester of 3-phenylbutanoate", "value": 1.0, "unit": "U/mg"},
      {"measurement": "specific activity", "setting": "[8]; pNP-ester of adamantanoate", "value": 0, "unit": "U/mg"},
      {"measurement": "specific activity", "setting": "[8]; pNP-ester of benzoate", "value": 12.1, "unit": "U/mg"},
      {"measurement": "specific activity", "setting": "[8]; pNP-ester of cyclohexanoate", "value": 16.8, "unit": "U/mg"}
    ]}
  ]
}
